In publication PMC10715077:

Molecular target: recombinant PGI protein (pGEX-4T-PGI) (Ganoderma lucidum)
Assay: SPR; Biacore T200, NTA sensor chip; PGI immobilised, TLP2 as analyte at 0-400 µM (legend: 0-400 nM); 50 mM HEPES pH 7.5, 150 mM NaCl, 0.1% Tween 20

Kd: 2210 nM
Substance: recombinant TLP2 protein (pColdI-TLP2) (natural protein)
